Measurements published in patent US20090029924.

T1: Pseudomonas exotoxin A (PEx), P11439
T1 chain: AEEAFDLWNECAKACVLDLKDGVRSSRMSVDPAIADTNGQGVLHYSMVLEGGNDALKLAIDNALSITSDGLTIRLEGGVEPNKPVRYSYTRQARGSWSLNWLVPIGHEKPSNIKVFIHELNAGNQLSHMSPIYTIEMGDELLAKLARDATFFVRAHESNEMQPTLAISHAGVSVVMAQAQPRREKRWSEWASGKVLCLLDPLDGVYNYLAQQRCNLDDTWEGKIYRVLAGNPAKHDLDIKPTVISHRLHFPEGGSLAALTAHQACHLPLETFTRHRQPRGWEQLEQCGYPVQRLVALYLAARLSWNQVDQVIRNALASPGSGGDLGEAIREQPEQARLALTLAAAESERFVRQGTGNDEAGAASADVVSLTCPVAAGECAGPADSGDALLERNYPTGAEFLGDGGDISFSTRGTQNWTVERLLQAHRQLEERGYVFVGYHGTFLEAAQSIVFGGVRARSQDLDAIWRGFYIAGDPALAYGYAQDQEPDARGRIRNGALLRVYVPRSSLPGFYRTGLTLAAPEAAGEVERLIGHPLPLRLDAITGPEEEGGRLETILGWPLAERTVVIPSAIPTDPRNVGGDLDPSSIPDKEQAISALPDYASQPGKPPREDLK

B1: Recombinant human PC7 (protein)
chain: SVHFNDPKYPQQWHLNNRRSPGRDINVTGVWERNVTGRGVTVVVVDDGVEHTIQDIAPNYSPEGSYDLNSNDPDPMPHPDVENGNHHGTRCAGEIAAVPNNSFCAVGVAYGSRIAGIRVLDGPLTDSMEAVAFNKHYQINDIYSCSWGPDDDGKTVDGPHQLGKAALQHGVIAGRQGFGSIFVVASGNGGQHNDNCNYDGYANSIYTVTIGAVDEEGRMPFYAEECASMLAVTFSGGDKMLRSIVTTDWDLQKGTGCTEGHTGTSAAAPLAAGMIALMLQVRPCLTWRDVQHIIVFTATRYEDRRAEWVTNEAGFSHSHQHGFGLLNAWRLVNAAKIWTSVPYLASYVSPVLKENKAIPQSPRSLEVLWNVSRMDLEMSGLKTLEHVAVTVSITHPRRGSLELKLFCPSGMMSLIGAPRSMDSDPNGFNDWTFSTVRCWGERARGTYRLVIRDVGDESFQVGILRQWQLTLYGSVWSAVDIRDRQRLLESAMSGKYLHDDFALPCPPGLKIPEEDGYTITPNTLKT
B2: Recombinant rat PACE4 (protein)
chain: QARSDSLYFNDPIWSNMWYMHCADKNSRCRSEMNVQAAWKRGYTGKNVVVTILDDGIERNHPDLAPNYDSYASYDVNGNDYDPSPRYDASNENKHGTRCAGEVAASANNSYCIVGIAYNAKIGGIRMLDGDVTDVVEAKSLGIRPNYIDIYSASWGPDDDGKTVDGPGRLAKQAFEYGIKKGRQGLGSIFVWASGNGGREGDHCSCDGYTNSIYTISVSSTTENGHKPWYLEECASTLATTYSSGAFYERKIVTTDLRQRCTDGHTGTSVSAPMVAGIIALALEANNQLTWRDVQHLLVKTSRPAHLKASDWKVNGAGHKVSHLYGFGLVDAEALVLEARKWTAVPSQHMCVATADKRPRSIPVVQVLRTTALTNACADHSDQRVVYLEHVVVRISISHPRRGDLQIHLISPSGTKSQLLAKRLLDFSNEGFTNWEFMTVHCWGEKAEGEWTLEVQDIPSQVRNPEKQGKLKEWSLILYGTAEHPYRTFSSHQSRSRMLELSVPEQEPLKAEGPPPQAETPEEEEEYTGVCHPECGDKGCDGPSADQCLNCVHFSLGNSKTNRKCVSECPLGYFGDTAARRCRRCHKGCETCTGRSPTQCLSCRRGFYHHQETNTCVTLCPAGLYADESQRLCLRCHPSCQKCVDEPEKSTVCKEGFSLARGSCIPDCEPGTYFDSELIRCGECHHTCRTCVGPSREECIHCAKSFHFQDWKCVPACGEGFYPEEMPGLPHKVCRRCDENCLSCEGSSRNCSRCKAGFTQLGTSCITNHTCSNADETFCEMVKSNRLCERKLFIQFCCRTCLLAG
B3: Recombinant human PC4 (protein)
chain: SVVVPTDPWFSKQWYMNSEAQPDLSILQAWSQGLSGQGIVVSVLDDGIEKDHPDLWANYDPLASYDFNDYDPDPQPRYTPSKENRHGTRCAGEVAAMANNGFCGVGVAFNARIGGVRMLDGTITDVIEAQSLSLQPQHIHIYSASWGPEDDGRTVDGPGILTREAFRRGVTKGRGGLGTLFIWASGNGGLHYDNCNCDGYTNSIHTLSVGSTTQQGRVPWYSEACASTLTTTYSSGVATDPQIVTTDLHHGCTDQHTGTSASAPLAAGMIALALEANPFLTWRDMQHLVVRASKPAHLQAEDWRTNGVGRQVSHHYGYGLLDAGLLVDTARTWLPTQPQRKCAVRVQSRPTPILPLIYIRENVSACAGLHNSIRSLEHVQAQLTLSYSRRGDLEISLTSPMGTRSTLVAIRPLDVSTEGYNNWVFMSTHFWDENPQGVWTLGLENKGYYFNTGTLYRYTLLLYGTAEDMTARPTGPQVTSSACVQRDTEGLCQACDGPAYILGQLCLAYCPPRFFNHTRLVTAGPGHTAAPALRVCSSCHASCYTCRGGSPRDCTSCPPSSTLDQQQGSCMGPTTPDSRPRLRAAACPHHRCPAS
B4: Recombinant human PC5/6 (protein)
chain: DYDFSRAQSTYFNDPKWPSMWYMHCSDNTHPCQSDMNIEGAWKRGYTGKNIVVTILDDGIERTHPDLMQNYDALASCDVNGNDLDPMPRYDASNENKHGTRCAGEVAAAANNSHCTVGIAFNAKIGGVRMLDGDVTDMVEAKSVSFNPQHVHIYSASWGPDDDGKTVDGPAPLTRQAFENGVRMGRRGLGSVFVWASGNGGRSKDHCSCDGYTNSIYTISISSTAESGKKPWYLEECSSTLATTYSSGESYDKKIITTDLRQRCTDNHTGTSASAPMAAGIIALALEANPFLTWRDVQHVIVRTSRAGHLNANDWKTNAAGFKVSHLYGFGLMDAEAMVMEAEKWTTVPRQHVCVESTDRQIKTIRPNSAVRSIYKASGCSDNPNRHVNYLEHVVVRITITHPRRGDLAIYLTSPSGTRSQLLANRLFDHSMEGFKNWEFMTIHCWGERAAGDWVLEVYDTPSQLRNFKTPGKLKEWSLVLYGTSVQPYSPTNEFPKVERFRYSRVEDPTDDYGTEDYAGPCDPECSEVGCDGPGPDHCNDCLHYYYKLKNNTRICVSSCPPGHYHADKKRCRKCAPNCESCFGSHGDQCMSCKYGYFLNEETNSCVTHCPDGSYQDTKKNLCRKCSENCKTCTEFHNCTECRDGLSLQGSRCSVSCEDGRYFNGQDCQPCHRFCATCAGAGADGCINCTEGYFMEDGRCVQSCSISYYFDHSSENGYKSCKKCDISCLTCNGPGFKNCTSCPSGYLLDLGMCQMGAICKDATEESWAEGGFCMLVKKNNLCQRKVLQQLCCKTCTFQG

Columns and labels:
[1] = target: Anthrax Protective Antigen-83 (PA83), P13423
[2] = target: recombinant H5 precursor (HA0)
[3] = target: T1, Pseudomonas exotoxin A (PEx), P11439

Anthrax Protective Antigen-83 (PA83), P13423, sequence (P13423 whole entry, looked up): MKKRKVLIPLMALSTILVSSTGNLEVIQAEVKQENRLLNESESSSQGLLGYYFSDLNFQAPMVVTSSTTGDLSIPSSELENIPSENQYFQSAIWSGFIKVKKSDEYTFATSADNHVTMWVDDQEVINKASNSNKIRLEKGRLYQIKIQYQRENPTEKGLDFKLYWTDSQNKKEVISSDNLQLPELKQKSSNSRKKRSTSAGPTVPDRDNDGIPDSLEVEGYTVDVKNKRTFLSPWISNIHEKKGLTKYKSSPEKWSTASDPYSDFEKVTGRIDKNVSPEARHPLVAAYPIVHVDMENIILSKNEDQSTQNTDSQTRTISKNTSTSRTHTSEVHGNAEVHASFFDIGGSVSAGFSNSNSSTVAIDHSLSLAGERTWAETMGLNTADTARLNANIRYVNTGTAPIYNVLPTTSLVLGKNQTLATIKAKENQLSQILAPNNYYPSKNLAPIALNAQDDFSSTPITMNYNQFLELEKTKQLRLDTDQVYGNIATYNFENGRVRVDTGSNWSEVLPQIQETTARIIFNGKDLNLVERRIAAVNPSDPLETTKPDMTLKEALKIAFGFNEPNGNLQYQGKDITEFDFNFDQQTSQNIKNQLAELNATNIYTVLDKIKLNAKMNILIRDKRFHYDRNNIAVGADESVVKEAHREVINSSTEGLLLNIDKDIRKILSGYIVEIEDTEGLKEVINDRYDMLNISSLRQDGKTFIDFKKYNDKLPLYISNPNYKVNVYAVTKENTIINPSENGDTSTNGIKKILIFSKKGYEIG

Row | Protein | in vitro cleavage of biotin-labeled substrate (Western blot) [1] | in vitro cleavage of biotin-labeled substrate (Western blot) [2] | in vitro cleavage at pH 5.5 (Western blot) [3]
1 | B1 | PACE4 and PC7 were less effective | other PCs were less efficient | –
2 | B2 | PACE4 and PC7 were less effective | other PCs were less efficient | –
3 | B3 | – | other PCs were less efficient | readily processed
4 | B4 | – | efficiently cleaved | readily processed
